The source of these data is patent US20240327847, “COMPOSITIONS AND METHODS FOR RNA AFFINITY” (SANOFI, published 2024).

The target in this data set is streptavidin (UniProt P22629 P22629:25-183). The data set is described as follows: pulldown; recovery similar to tRNA scaffold control, described as non-specific under these conditions. The settings on record: tags: immobilised on sepharose beads (streptavidin sepharose); chain copies: 4 (inferred). As to the method: Subsequently, the beads were resuspended in 20 μL of binding buffer with RNasin Ribonuclease Inhibitor (3 μL/100 units) and then incubated on ice for 15 minutes. (2) Preparation of RNA aptamers. 2.5 μg of the RNA aptamers were resuspended in 10 μL binding buffer. Refolding of the RNA aptamers was performed by heating at 56° C. for 5 min, 37° C. for 10 min, followed by a room temperature incubation for 5 minutes to refold aptamer structure. At the end of the RNA aptamer preparation procedure, 2 μL of the random aptamer and the Sim aptamer in a 1:2 mix with binding buffer were collected as a control for total RNA aptamer yield (input control). (3) Incubation conditions. 10 μL of refolded aptamer containing mRNA (2.5 μg) aptamers were added to the beads and incubated at 4° C. for 2 hours on a rotator. Subsequently, beads were washed 3 times with 100 μL of binding buffer and kept on ice for the remainder of the procedure to maintain aptamer secondary structure. (4) Elution of RNA aptamers from beads. Elution was performed with 250 μL phenol-based reagent in the following steps. […] RNA concentration following streptavidin affinity purification was quantified on a Nanodrop using parameters set by the manufacturer's specifications.
Chain of streptavidin (P22629 25-183, one chain of several): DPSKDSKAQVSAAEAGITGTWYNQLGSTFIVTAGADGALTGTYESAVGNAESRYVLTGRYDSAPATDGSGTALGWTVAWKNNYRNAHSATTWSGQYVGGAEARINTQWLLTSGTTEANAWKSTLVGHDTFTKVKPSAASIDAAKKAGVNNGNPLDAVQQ
Affinity binding of the Sm, tRNA, tRNA-Sm, and 2× tRNA Sm aptamer tags were analyzed. […]

CGACCAGAAUCAUGCAAGUGCGUAAGAUAGUCGCGGG (ssRNA) [Sm aptamer (pAM20)]: the binding result was “no binding”.
